Laboratory results taken from patent US20220331349A1, “TARGETED NANOPARTICLES AND THEIR USES RELATED TO FUNGAL INFECTIONS” (UNIVERSITY OF GEORGIA RESEARCH FOUNDATION, INC., priority 2019, published 2022).
Read-outs that look alike come from different tables or passages of the source.

Key:
[1] = cited from earlier work
A. fumigatus = assay: sDectin-2 liposome and DEC2-Rhod binding to A. fumigatus; parameters: species or system Aspergillus fumigatus
Procedure: C. albicans CAI4 expressing GFP under control of the ADH1 promoter, A. fumigatus A1163, and wild type C. neoformans H99-alpha were grown in Vogel's Minimal Media (VMM)+1% glucose (85)+0.5% BSA or RPMI 1640 media with no red indicator dye (ThermoFisher SKU— 11835-030)+0.5% BSA or YPD (1% yeast extract, 2% peptone, 2% dextrose) in liquid with shaking or on 24 or 96 well polystyrene microtiter plates or on glass microscope chamber slides and incubated at 37° C. for 3 to 36 hr. Plates were pre-coated with poly-L-lysine for A. fumigatus and glass microscope slides were pre-coated with […]. All fungal cell growth was carried out in a BSL2 laboratory. […]
Formalin fixed fungal cells were incubated with liposomes at 23° C. in liposome dilution buffer LDB2 (20 mM HEPES, 10 mM Triethoanolamine, 150 mM NaCl, 10 mM CaCl2, 1 mM beta-mercaptoethanol (BME), 5% BSA pH 8.0), wherein the BME was added fresh. […] The area of liposome binding at 20× magnification was quantified by taking an 8-bit grey-scale copy of the unmodified red fluorescent TIF image into Image J (imagej.nih.gov/ij), using Image>Adjust>Threshold>Apply to capture just the red fluorescent areas illuminated by liposomes, and using Analyze>Measure to place the area data for each image in a file. Six to ten photographic images were generally analyzed and averaged for most area estimates. […]

[2] = cited from earlier work; remark: listed apart in the source

For “sDectin-1: soluble extracellular C-terminal beta glucan binding domain of Dectin-1 (CLEC7A)”, the EC50 ([1]; read-out: EC50s for binding various beta-glucans, strong end of range) is given as at least 2.2e-09 mM, the EC50 ([1]; read-out: EC50s for binding various beta-glucans, weak end of range) is given as at most 2 mM and the Kd ([1]; read-out: Kd affinity constants for various beta-glucans, strong end of range) is given as at least 2.2e-09 mM. The Kd ([1]; read-out: Kd affinity constants for various beta-glucans, weak end of range) was at most 2.6 mM.

B1: DEC2-Rhod: Rhodamine labeled sDectin-2 protein (conjugate, UniProt Q6EIG7 42-209, looked up)
extracellular domain: TYHFTYGETGKRLSELHSYHSSLTCFSEGTKVPAWGCCPASWKSFGSSCYFISSEEKVWSKSEQNCVEMGAHLVVFNTEAEQNFIVQQLNESFSYFLGLSDPQGNNNWQWIDKTPYEKNVRFWHLGEPNHSAEQCASIVFWKPTGWGWNDVICETRRNSICEMNKIYL
modifications: extracellular domain rhodamine label
notes: Rhodamine labeled sDectin-2 protein
In the case of B1, the “binding to A. fumigatus cell wall” value (A. fumigatus) is reported as “did not stain the cell wall” and the “binding to exopolysaccharide matrix of A. fumigatus” value (A. fumigatus; 1 hr, 1:200 dilution) is reported as “bound strongly to most of the exopolysaccharide matrix surrounding A. fumigatus hyphal cells”.

B2: sDectin-2: soluble mannan-recognition domain of Dectin-2 (CLEC6A) (protein, UniProt Q6EIG7 42-209, looked up)
extracellular domain: B1 extracellular domain
modifications: extracellular domain
For B2, the EC50 ([2]; read-out: Effective Concentration for 50% of binding (EC50), mannan-a-1-2-mannan) is given as about 2 mM, the EC50 ([2]; read-out: Effective Concentration for 50% of binding (EC50), mannoglycan) is given as about 0.15 mM and the EC50 ([2]; read-out: Effective Concentration for 50% of binding (EC50), mannose) is given as about 20 mM.
